B1: library; numbered along this chain (parent)
chain: MATDAALRRLLRLHRTEIAVAVDSAFPLLHALADHDVVPEDKFQETLHLKEKEGCPQAFHALLSWLLTQDSTAILDFWRVLFKDYNLERYGRLQPILDSFPKDVDLSQPRKGRKPPAVPKALVPPPRLPTKRKASEEARAAAPAALTPRGTASPGSQLKAKPPKKPESSAEQQRLPLGNGIQTMSASVQRAVAMSSGDVPGARGAVEGILIQQVFESGGSKKCIQVGGEFYTPSKFEDSGSGKNKARSSSGPKPLVRAKGAQGAAPGGGEARLGQQGSVPAPLALPSDPQLHQKNEDECAVCRDGGELICCDGCPRAFHLACLSPPLREIPSGTWRCSSCLQATVQEVQPRAEEPRPQEPPVETPLPPGLRSAGEEVRGPPGEPLAGMDTTLVYKHLPAPPSAAPLPGLDSSALHPLLCVGPEGQQNLAPGARCGVCGDGTDVLRCTHCAAAFHWRCHFPAGTSRPGTGLRCRSCSGDVTPAPVEGVLAPSPARLAPGPAKDDTASHEPALHRDDLESLLSEHTFDGILQWAIQSMARPAAPFPS

Variants of: B1
Assay: AIRE transcriptional activation functional score (insulin promoter-GFP; nonsense median 0, synonymous median 1) (normalised score); higher = higher AIRE activity (more reporter activation)
Settings: with insulin promoter-GFP reporter in HEK293
Experimental: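 Deep mutational scan of full-length human AIRE (codon-optimized cDNA, DT-POPCode NNN libraries over three regions) integrated at a Bxb1 landing pad in HEK293 cells carrying an insulin core promoter-GFP reporter at a Flp-In site. Cells were sorted for the top 10% GFP about 14 days after transfection. Variant frequency log-ratios (select vs non-select, TileSeq) were rescaled so that the nonsense median is 0 and the synonymous median is 1, then averaged over biological replicates.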

AIRE transcriptional activation functional score: each site, then its substitutions
A141: S 1.01; T 0.967; V 1; W 1.18; Y 1.66
A142: C 1.03; D 1.05; E 1.17; F 1.16; G 1.29; H 0.486; I 0.926; K 0.314; L 1.17; M 0.975; N 0.413; P 0.882; Q -0.0872; R 0.685; S 0.968; T 0.704; V 1.27; W 1.28; Y 1.14
P143: A 1.18; C 0.956; D 1.01; E 1.5; F 1.28; G 0.958; H 1.09; I 0.862; K 0.307; L 1.11; M 1.02; N 1.32; Q 1.33; R 0.548; S 0.96; T 1.49; V 0.964; W 1.15; Y 1.39
A144: C 1.04; D 0.251; E 0.655; F 1.26; G 1.31; H 0.0775; I 0.989; K 0.364; L 1.17; M 0.931; N 0.39; P 1.65; Q 0.126; R 0.836; S 0.773; T 1.02; V 1.1; W 1.99; Y 1.48
A145: C 1.07; D 0.593; E 0.0573; F 1.23; G 1.29; H 1.37; I 0.806; K 0.907; L 1.19; M 0.474; N 0.349; P 0.887; Q 1.12; R 0.804; S 1.4; T 1.21; V 0.722; W 2.05; Y 1.66
L146: A 0.454; C 0.639; D 1.73; E 0.882; F 0.9; G 0.344; H 0.618; I 0.888; K 0.924; M 0.496; N 0.353; P 0.73; Q 1.05; R 0.262; S 1.03; T 1.09; V 0.912; W 1.42; Y 1.24
T147: A 0.279; C 0.358; D 0.817; E 1.45; F 1.49; G 0.811; H 1.22; I 1.16; K 0.787; L 1.05; M 1.19; N 1.26; P 0.125; Q 0.724; R 1.03; S 0.771; V 0.966; W 1.75; Y 0.76
P148: A 0.746; C 1.31; D 0.772; E 1.67; F 1.53; G 0.361; H 0.972; I 1.49; K -0.163; L 1.45; M 0.633; N 0.598; Q 1.14; R 0.931; S 1.19; T 1.29; V 1.45; W 0.0844; Y 1.97
R149: A 1.19; C 0.794; D 1.12; E 1.02; F 0.857; G 0.663; H 1.12; I 0.113; K 0.675; L 1.22; M 0.41; N 0.726; P 0.874; Q 1.71; S 1.26; T 0.559; V 0.621; W 1.11; Y 0.303
G150: A -0.308; C 1.38; D -0.34; E 0.763; F 1.34; H 1.19; I 1.08; K 1.53; L 1.3; M 0.246; N 0.149; P 0.879; R 0.148; S 1.63; T 0.661; V 0.822; W 2.25; Y 2.21
T151: A 1.37; C 0.915; D 1.27; E 1.13; F 1.76; G 1.36; H 1.34; I 1.3; K 0.845; L 0.905; M 0.378; N 0.966; P 1.01; Q 1.28; R 0.807; S 1.01; V 1.5; W 1.97; Y 1.44
A152: C 0.402; D 0.696; E -0.141; F 1.55; G 0.815; H 0.789; I 0.777; K 0.993; L 1.19; M 1.86; N 0.485; P 0.594; Q 0.894; R 0.913; S 0.715; T 1.32; V 1.17; W 1.68; Y 1.21
S153: A 0.85; C 1.2; D 0.728; E 1.14; F 1.67; G 1.21; H 1.41; I 1.03; K 0.285; L 1.16; M 1.09; N 0.697; P 1.7; Q 0.582; R 0.588; T 0.818; V 0.888; W 1.4; Y 0.691
P154: A 0.676; C 0.692; D 0.0296; E 0.475; F 1.89; G 0.75; H 0.26; I 1.59; K -1.06; L 1.36; M -0.062; N 0.642; Q -0.0735; R 0.579; S 0.685; T 1.35; V 0.461; W 1.13; Y 1.68
G155: A 1.44; C 0.555; D 0.338; E 0.777; F 1.61; H 1.71; I 0.209; K 0.662; L 0.509; M 2.34; N 0.154; P -0.203; Q -0.156; R 1.01; S 0.589; T 0.66; V 0.534; W 1.83; Y 1.19
S156: A 0.976; C 1.38; D 0.928; E 0.377; F 1.53; G 0.917; H 0.981; I 1.37; K 0.349; L 1.55; M 0.855; N 1.39; P 0.405; Q 0.543; R 0.968; T 1.75; V 1.13; W 1.64; Y 0.901
Q157: A 1.13; C 1.27; D 0.498; E 1.26; F 1.5; G 1.08; H 1.34; I 0.859; K 0.787; L 1.26; M 0.398; N 0.858; P 1.1; R 0.62; S 1.05; T 0.825; V 0.829; W 0.173; Y 1.31
L158: A 0.834; C 0.528; D 0.772; E 0.986; F 1.27; G 1.33; H 0.949; I 0.959; K 0.11; M 0.957; N 1.19; P 0.723; Q 0.833; R 0.202; S 0.724; T 0.209; V 0.815; W 1.22; Y 1.07
K159: A 0.394; C 1.14; D 0.68; E 0.955; F 1.44; G 0.883; H 1.18

Source: the supplement of paper PMC12667976
